This experiment has as its target T1, AR (Homo sapiens, UniProt P10275, DEL79-80/DUP473-473).
T1 sequence (P10275 with tags, fused parts or gaps DEL79-80/DUP473-473): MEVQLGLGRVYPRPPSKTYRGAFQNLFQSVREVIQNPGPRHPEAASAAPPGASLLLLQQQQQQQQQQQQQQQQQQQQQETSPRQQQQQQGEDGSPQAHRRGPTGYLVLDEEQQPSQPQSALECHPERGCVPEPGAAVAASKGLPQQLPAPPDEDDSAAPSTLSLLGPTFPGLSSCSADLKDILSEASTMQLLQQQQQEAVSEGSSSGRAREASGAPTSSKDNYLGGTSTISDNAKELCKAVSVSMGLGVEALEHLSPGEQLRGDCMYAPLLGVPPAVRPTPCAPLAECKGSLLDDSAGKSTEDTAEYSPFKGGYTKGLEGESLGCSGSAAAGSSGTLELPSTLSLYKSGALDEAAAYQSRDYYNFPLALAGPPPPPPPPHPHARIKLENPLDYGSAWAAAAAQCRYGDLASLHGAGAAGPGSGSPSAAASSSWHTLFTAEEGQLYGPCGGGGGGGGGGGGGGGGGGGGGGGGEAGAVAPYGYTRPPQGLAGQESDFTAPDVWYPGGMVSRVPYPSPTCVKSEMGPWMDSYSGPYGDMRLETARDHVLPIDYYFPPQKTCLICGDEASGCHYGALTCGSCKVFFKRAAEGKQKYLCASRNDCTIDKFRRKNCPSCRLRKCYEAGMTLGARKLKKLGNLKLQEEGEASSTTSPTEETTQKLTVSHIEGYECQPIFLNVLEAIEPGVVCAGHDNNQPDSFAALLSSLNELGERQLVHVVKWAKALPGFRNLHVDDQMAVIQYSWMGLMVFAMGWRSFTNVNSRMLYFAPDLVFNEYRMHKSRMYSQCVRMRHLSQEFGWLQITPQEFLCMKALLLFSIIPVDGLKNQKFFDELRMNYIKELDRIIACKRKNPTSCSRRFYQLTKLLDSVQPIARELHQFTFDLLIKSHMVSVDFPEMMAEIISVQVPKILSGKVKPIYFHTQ
The experiment is described as follows: Immunocytofluorescence of AR localization in DU145 cells. The format is cell-based. Also noted: expressed in transfected cells; host or cells: DU145 cells. To be noted: absence of DHT.

Method: DU145 cells were seeded on two-well Lab Tek Chamber slides (Nalge Nunc International) 18 h before transfection. One to two μg of DNA per 10^5 cells was transfected by the FuGENETM 6 transfection reagent (Boehringer-Mannheim). […] Immunostaining was performed by incubating with anti-AR polyclonal antibody (NH27), anti-TR4 monoclonal antibody (#15), and anti-ERa monoclonal antibody (C-314, Santa Cruz), followed by incubation with either fluorescein-conjugated goat anti-rabbit or anti-mouse antibodies (ICN Pharmaceuticals, Inc.). […] The slides were photographed under 100-fold magnification using confocal microscopy.
An immunocytofluorescence assay was then applied to determine the subcellular localization of the AR and TR4 in DU145 cells. DU145 cells were seeded on two-well Lab Tek Chamber slides (Nalge Nunc International) 18 hours before transfection. One to two μg of DNA per 105 cells was transfected either with AR (unliganded or liganded), TR4, or ER alone or in combination with the FuGENETM6 transfection reagent (Boehringer-Mannheim). […] Immunostaining was performed by incubation with the anti-AR polyclonal antibody, anti-TR4 monoclonal antibody, or anti-ERa monoclonal antibody, followed by incubation with either fluorescein-conjugated goat anti-rabbit or anti-mouse antibodies (ICN Pharmaceuticals, Inc.).

B1: TR4: human testicular orphan nuclear receptor 4, SEQ ID NO:16; expressed from plasmid or in vitro translated (protein)
chain: MTSPSPRIQIISTDSAVASPQRIQGSEPASGPLSVFTSLNKEKIVTDQQTGQKIQIVTAVDASGSPKQQFILTSPDGAGTGKVILASPETSSAKQLIFTTSDNLVPGRIQIVTDSASVERLLGKTDVQRPQVVEYCVVCGDKASGRHYGAVSCEGCKGFFKRSVRKNLTYSCRSSQDCIINKHHRNRCQFCRLKKCLEMGMKMESVQSERKPFDVQREKPSNCAASTEKIYIRKDLRSPLIATPTFVADKDGARQTGLLDPGMLVNIQQPLIREDGTVLLATDSKAETSQGALGTLANVVTSLANLSESLNNGDTSEIQPEDQSASEITRAFDTLAKALNTTDSSSSPSLADGIDTSGGGSIHVISRDQSTPIIEVEGPLLSDTHVTFKLTMPSPMPEYLNVHYICESASRLLFLSMHRARSIPAFQGLGQDCNTSLVRACWNELFTLGLAQCAQVMSLSTILAAIVNHLQNSIQEDKLSGDRIKQVMEHIWKLQEFCNSMANWDIDGYEYAYLKAIVLFSPDHPGLTSTSQIEKFQEKAQMELQDYVQKTYSEDTYRLARILVRLPALRLMSSNITEELFFTGLIGNVSIDSIIPYILKMETAEYNGQITGVSL
On to B1, for which the “Subcellular localization of unliganded AR on co-transfection” value is recorded as “moves into the nucleus”.

For the origin of these results see US20030235860A1, “Interactions between AR, ER, TR2, and TR4” (priority 1999, published 2003).
